Consider one protein from publication doi:10.1101/2024.10.21.619389 (bioRxiv, 2024).

The data set deals with the molecule itself. Description: negative-stain transmission electron microscopy.

B1: light-dependent protochlorophyllide oxidoreductase (LPOR) isoform AtPORB (enzyme, Arabidopsis thaliana)
chain: QTAATSSPTVTKSVDGKKTLRKGNVVVTGASSGLGLATAKALAETGKWNVIMACRDFLKAERAAKSVGMPKDSYTVMHLDLASLDSVRQFVDNFRRTETPLDVLVCNAAVYFPTAKEPTYSAEGFELSVATNHLGHFLLARLLLDDLKKSDYPSKRLIIVGSITGNTNTLAGNVPPKANLGDLRGLAGGLNGLNSSAMIDGGDFDGAKAYKDSKVCNMLTMQEFHRRFHEETGVTFASLYPGCIASTGLFREHIPLFRALFPPFQKYITKGYVSETESGKRLAQVVSDPSLTKSGVYWSWNNASASFENQLSEEASDVEKARKVWEISEKLVGLA
As to B1, the binding result is “binds”.
